Kd data for one substance are collected here from paper PMC8242512.

The target of the assay is soluble trimeric SARS-CoV-2 S glycoprotein, 2P-stabilized, lacking the furin cleavage site (SARS-CoV-2) (UniProt P0DTC2). The experiment in a line: SPR; S protein captured on a Ni2+-loaded NTA chip; ACE2 as analyte, serial dilutions 200 nM to 3.125 nM in triplicate, 50 ul/min, HBS P+ buffer, association 300 s, dissociation 600 s; 1:1 binding model (Biacore Evaluation Software).

truncated soluble angiotensin-converting enzyme 2 (hACE2), sequence (Q9BYF1 18-626): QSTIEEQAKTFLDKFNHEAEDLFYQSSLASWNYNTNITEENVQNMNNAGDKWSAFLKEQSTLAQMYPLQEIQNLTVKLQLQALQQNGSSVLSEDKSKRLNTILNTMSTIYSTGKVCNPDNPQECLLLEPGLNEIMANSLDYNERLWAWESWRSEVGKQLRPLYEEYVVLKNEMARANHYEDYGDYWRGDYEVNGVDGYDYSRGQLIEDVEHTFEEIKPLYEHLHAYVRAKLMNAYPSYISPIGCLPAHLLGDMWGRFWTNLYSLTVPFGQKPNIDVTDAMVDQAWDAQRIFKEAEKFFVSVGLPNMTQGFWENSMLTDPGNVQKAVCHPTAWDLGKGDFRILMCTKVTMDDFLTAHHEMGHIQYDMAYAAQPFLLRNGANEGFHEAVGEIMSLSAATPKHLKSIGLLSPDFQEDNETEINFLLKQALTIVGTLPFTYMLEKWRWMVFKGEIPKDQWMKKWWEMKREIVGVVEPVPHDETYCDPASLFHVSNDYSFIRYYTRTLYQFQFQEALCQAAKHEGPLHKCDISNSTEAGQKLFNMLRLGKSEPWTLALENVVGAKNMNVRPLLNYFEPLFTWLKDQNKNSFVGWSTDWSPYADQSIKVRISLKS

“truncated soluble angiotensin-converting enzyme 2 (hACE2) (from UniProt Q9BYF1 18-626) (receptor)”: the Kd is 84 nM.

Usually Kd stands for the equilibrium constant for the complex coming apart. Low values mean a tighter complex, high ones a looser complex.
